# T1: actin-binding domain 1 of human plastin 2 (human, UniProt P13796 120-375)
# T1 sequence (looked up): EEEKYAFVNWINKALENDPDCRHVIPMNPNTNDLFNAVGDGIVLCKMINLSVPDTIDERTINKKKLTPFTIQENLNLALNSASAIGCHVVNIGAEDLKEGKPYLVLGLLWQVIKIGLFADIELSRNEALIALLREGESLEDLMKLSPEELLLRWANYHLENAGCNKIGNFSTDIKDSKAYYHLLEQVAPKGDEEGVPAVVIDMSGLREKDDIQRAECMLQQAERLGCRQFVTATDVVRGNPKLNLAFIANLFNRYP
# B1: actin-binding domain 2 of human plastin 2, unlabeled (domain or fragment)
# chain: TREERTFRNWMNSLGVNPRVNHLYSDLSDALVIFQLYEKIKVPVDWNRVNKPPYPKLGGNMKKLENCNYAVELGKNQAKFSLVGIGGQDLNEGNRTLTLALIWQLMRRYTLNILEEIGGGQKVNDDIIVNWVNETLREAKKSSSISSFKDPKISTSLPVLDLIDAIQPGSINYDLLKTENLNDDEKLNNAKYAISMARKIGARVYALPEDLVEVNPKMVMTVFACLMGKGMKRV
# B2: fluorescein-maleimide-labeled actin-binding domain 2 of human plastin 2 (domain or fragment, UniProt P13796 394-627, looked up)
# chain: TREERTFRNWMNSLGVNPRVNHLYSDLSDALVIFQLYEKIKVPVDWNRVNKPPYPKLGGNMKKLENCNYAVELGKNQAKFSLVGIGGQDLNEGNRTLTLALIWQLMRRYTLNILEEIGGGQKVNDDIIVNWVNETLREAKKSSSISSFKDPKISTSLPVLDLIDAIQPGSINYDLLKTENLNDDEKLNNAKYAISMARKIGARVYALPEDLVEVNPKMVMTVFACLMGKGMKRV
# modifications: labeled with fluorescein-5-maleimide (FM); labeled residue not stated
# Columns and labels:
# [1] = biological target: F-actin (skeletal muscle actin, polymerised) ( (rabbit or chicken skeletal …, UniProt P68135 1-377)); experiment: fluorescence polarisation
# [2] = biological target: T1, actin-binding domain 1 of human plastin …; experiment: fluorescence polarisation
Binder,Kd [1],Kd [2]
B1,~4 nM,–
B2,–,11.4 nM

# — paper PMC9358775 (Nature structural & molecular biology, 2022)
